In this test the target is recombinant LSD1 (UniProt O60341 1-852). Kind of test: pull-down; recombinant proteins in vitro (Figure S1F); GST fusion on glutathione-sepharose beads, NETN buffer, 4 °C for 2 h. The note with it: both partners purified.

B1: recombinant OTUD7B (enzyme)
chain: MTLDMDAVLSDFVRSTGAEPGLARDLLEGKNWDVNAALSDFEQLRQVHAGNLPPSFSEGSGGSRTPEKGFSDREPTRPPRPILQRQDDIVQEKRLSRGISHASSSIVSLARSHVSSNGGGGGSNEHPLEMPICAFQLPDLTVYNEDFRSFIERDLIEQSMLVALEQAGRLNWWVSVDPTSQRLLPLATTGDGNCLLHAASLGMWGFHDRDLMLRKALYALMEKGVEKEALKRRWRWQQTQQNKESGLVYTEDEWQKEWNELIKLASSEPRMHLGTNGANCGGVESSEEPVYESLEEFHVFVLAHVLRRPIVVVADTMLRDSGGEAFAPIPFGGIYLPLEVPASQCHRSPLVLAYDQAHFSALVSMEQKENTKEQAVIPLTDSEYKLLPLHFAVDPGKGWEWGKDDSDNVRLASVILSLEVKLHLLHSYMNVKWIPLSSDAQAPLAQPESPTASAGDEPRSTPESGDSDKESVGSSSTSNEGGRRKEKSKRDREKDKKRADSVANKLGSFGKTLGSKLKKNMGGLMHSKGSKPGGVGTGLGGSSGTETLEKKKKNSLKSWKGGKEEAAGDGPVSEKPPAESVGNGGSKYSQEVMQSLSILRTAMQGEGKFIFVGTLKMGHRHQYQEEMIQRYLSDAEERFLAEQKQKEAERKIMNGGIGGGPPPAKKPEPDAREEQPTGPPAESRAMAFSTGYPGDFTIPRPSGGGVHCQEPRRQLAGGPCVGGLPPYATFPRQCPPGRPYPHQDSIPSLEPGSHSKDGLHRGALLPPPYRVADSYSNGYREPPEPDGWAGGLRGLPPTQTKCKQPNCSFYGHPETNNFCSCCYREELRRREREPDGELLVHRF
notes: OTUD7B; cDNA in pGEX4T1 (GST) or pET21b (His); also called GST-OTUD7B; His-OTUD7B; source: recombinant; GST fusions expressed in BL21 and purified by glutathione-sepharose beads; not shown: GST or His (GST-OTUD7B and His-OTUD7B were both cloned)
Turning to B1, the binding result was “binds”.

The values above are taken from paper PMC8336515, “OTUD7B Deubiquitinates LSD1 to Govern Its Binding Partner Specificity, Homeostasis, and Breast Cancer Metastasis” (Advanced Science, 2021).
